Drawing on PMC8533965, this text covers percent of fluorescent embryos (BiFC) and ATPase activity of 5-µM zfVasa with 2.5-mM ATP (NADH-coupled assay, absorption for nine molecules.

The target of assay [1] is zebrafish Vasa, full length (amino acids 1–715), fused to the Venus N-terminal half (zfVasa-VN) (zebrafish). Kind of assay: split reporter (BiFC, NanoBiT); BiFC with split Venus in living zebrafish embryos: Buc constructs with VC and zfVasa constructs with VN at their C-termini, mRNAs (200 ng/μL) co-injected at the one-cell stage, fluorescence imaged at 3 hpf by confocal microscopy; read-out percent of fluorescent embryos, three independent ….

The target of assay [2] is zfVasa-HC (helicase core, amino acids 278–715) fused to the Venus N-terminal half (zebrafish). The assay is described as above.
Assay [3] has as its target zfVasa-BBM (amino acids 600–625) fused to the Venus N-terminal half (zebrafish). The assay is described as above.
The target in assay [4] is zfVasa RecA-CTD (amino acids 496–623) fused to the Venus N-terminal half (zebrafish). The description is as above.
The target in assay [5] is zfVasa eRecA-CTD (extended sequence at the C-terminus of RecA-CTD, amino acids 624–715) fused to the Venus N-terminal half (zebrafish). Described as above.
Assay [6] deals with zebrafish Vasa, full length (amino acids 1–715), fused to the Venus N-terminal half (zfVasa-VN) (zebrafish). The description is as above. This is another data set of the same source.
In assay [7] the target is zfVasa S607A (full length) fused to the Venus N-terminal half (zebrafish). Described as above.
For assay [8], the target named is zfVasa S608A (full length) fused to the Venus N-terminal half (zebrafish). Described as above.
In assay [9] the target is zebrafish Vasa, full length (amino acids 1–715), fused to the Venus N-terminal half (zfVasa-VN) (zebrafish). The description is as above. This is another data set of the same source.
Assay [10] deals with zfVasa (amino acids 227–670), recombinant, GST tag removed (zebrafish).

Where two headings read alike, the source gives them in different places.

For the molecule SVLSPSIDELSSRDEMFSTDVED (domain or fragment) [Buc amino acids 372–394 (highly conserved sequence, Buc-VBM) fused to the Venus C-terminal half], in assay [1], the percent of fluorescent embryos (BiFC) came out at 66%.

B1: Bucky ball, full length (amino acids 1–639), fused to the Venus C-terminal half (Buc-VC) (natural protein)
chain: MEGINNNSQPMGVGQPHHPVNHTRPFFYVQPPSQPYFMYQWPMNPYGHYGFPGPALHFGRPYMAPYQFMQYPGYVIPHAPMQPIDYRRINPHYPSVASYDLRVRHHFQNAGMHRETACSEVQTDPSDSVNKLIDKIESLKACELGSDKGPNNVVSSTPDVVQGEKLTRLNEDSNLEVATKECKEDPVTRPTTYSDSAYDAESSQGRLDECVFSDVLPLDSSSVHEEEEEEEKDVNEEDEPQTVADEICSQNEMSASTTSNVFCSGVQSIADPTECHDLEKLGDEQKQDIPSADAAAVIEPLISLSEDFDLPYQILRLPCNKTTTGLSLEREIDPLVYFDSPSTLLPPQNYLSSIGSAYSYSYYPQVTQERQSVLSPSIDELSSRDEMFSTDVEDLEVVPGHVYVGGGRLAEASDMPVRSRKELPSVDKTCSVCQKTCACCGSTLQDEVGMCKMAEHSHPERDEMSDQDCDYDLEAEVRSNCESPRVSKRKCCSRHALPSCGHHCAKHRHRKLLCEGQESCDLREQARVHPKGECCEEYGALAKADKRIQKGALCRPCIEQQWREGVVSDQENWASCGAKPRSWRQVTGPQDQGRTPLRRSTCKSIHQQRPRSEYNDYDETEFTYCQRGRGSMKKRGSRY
As to B1, the percent of fluorescent embryos (BiFC) was found to be 82% in assay [1]; 70% in assay [2]; 69% in assay [3]; 64% in assay [4]; 14% in [5]; 77% in assay [6]. The percent of fluorescent embryos (BiFC) in assay [7] worked out at 38%; in assay [8], 27%; in assay [9] it was 79%.

B2: Buc-CTD (amino acids 363–639) fused to the Venus C-terminal half (domain or fragment)
chain: YPQVTQERQSVLSPSIDELSSRDEMFSTDVEDLEVVPGHVYVGGGRLAEASDMPVRSRKELPSVDKTCSVCQKTCACCGSTLQDEVGMCKMAEHSHPERDEMSDQDCDYDLEAEVRSNCESPRVSKRKCCSRHALPSCGHHCAKHRHRKLLCEGQESCDLREQARVHPKGECCEEYGALAKADKRIQKGALCRPCIEQQWREGVVSDQENWASCGAKPRSWRQVTGPQDQGRTPLRRSTCKSIHQQRPRSEYNDYDETEFTYCQRGRGSMKKRGSRY
On to B2, for which the percent of fluorescent embryos (BiFC) in [1] worked out at 77%.

With YPQVTQERQSVLSPSIDELSSRDEMFSTDVEDLEVVPG [Buc-VBM (amino acids 363–400), recombinant, GST tag removed], the ATPase activity of 5-µM zfVasa with 2.5-mM ATP (NADH-coupled assay, absorption at 340 nm, 25 °C) on addition of 100-µM Buc-VBM, without RNA in assay [10] was 2 fold.

Turning to YPQVTQERQSVLSPSIDELSSGDEMFSTDVEDLEVVPG (domain or fragment) [Buc-VBM (amino acids 363–400) R384G (non-conserved control) fused to the Venus C-terminal half], in [9], the percent of fluorescent embryos (BiFC) is 63%.

As for YPQVTQERQSVLSPSILELSSRDEMFSTDVEDLEVVPG (domain or fragment) [Buc-VBM (amino acids 363–400) D379L fused to the Venus C-terminal half], the percent of fluorescent embryos (BiFC) in assay [1] was 38%; in assay [9], 36%.

As for YPQVTQERQSVLSPSIDELSSRDEMFATDVEDLEVVPG (domain or fragment) [Buc-VBM (amino acids 363–400) S389A fused to the Venus C-terminal half], in assay [9], the percent of fluorescent embryos (BiFC) was 43%.

For the molecule YPQVTQERQSVLSPSIDELSSRDLMFSTDVEDLEVVPG (domain or fragment) [Buc-VBM (amino acids 363–400) E386L fused to the Venus C-terminal half], the percent of fluorescent embryos (BiFC) in [9] turned out to be 48%.

Regarding YPQVTQERQSVLSPSIDELSSRDEMFSTDVEDLEVVPG (domain or fragment) [Buc amino acids 363–400 fused to the Venus C-terminal half], the values for the percent of fluorescent embryos (BiFC) in [1] and in assay [9] were 72% and 70%, respectively.
